In patent US8076087B2, “Galectin sequences and compositions and methods utilizing same for treating or diagnosing arthritis and other chronic inflammatory diseases” (Medical Research Fund of Tel Aviv Souraskv Medical Center, priority 2002, dated 2011):

How the values were obtained:
[1] = system: synovial fluid cells from RA patients; experiment: Apoptosis induction, annexin V/PI flow cytometry, synovial fluid cells; type: cell-based, human; conditions: for total cell population in the apoptotic area: untreated control 19%
Protocol: (§1) The assay was performed by Phosphatidyl Serine Detection Kit (IOP-116F FITC-conjugated, IQ Products, The Netherlands) using the manufacturer instructions. Human fibroblast cells from OA patients, synovial fluid cells and PBLs from RA and other arthritic patients were incubated with increasing concentrations of galectin-8 variants 1 and 2 (50-2000 ng/ml). Specific binding of annexin V was performed by the incubation of cells for 20 minutes on ice in a binding calcium buffer containing a saturating concentration of annexin V-fluorescein isothiocyanate (FITC) and propdium iodide (PI). After incubation, the cells were pelleted, and analyzed in FACS analyzer (Beckton Dickinson, San Jose, Calif.). Annexin V^+/PI^+ cells were defined as necrotic, while annexin V^+/PI^− cells were defined as apoptotic. The percent of the apoptotic cells of the total cells was determined.

IL-1ra = IL-1ra levels in media of LPS-supplemented human synovial tissue / cell cultures, sandwich enzyme immunoassay; type: cell-based; conditions: for IL-1ra levels in media / increase of IL-1ra levels: LPS 3 μg/ml, 48 hours; for IL-1ra levels in media: 50-2000 ng/ml; for increase of IL-1ra levels: synovial tissue culture, vs LPS treated control
Protocol: (§2) Specimen Selection and Culture Conditions: Synovial tissues were obtained from patients undergoing total knee or hip replacement for osteoarthritis (OA). Within 2 hours of removal, synovial tissues were cut into small pieces, of a few millimeters in diameter. Synovial fibroblasts were cultured in 2 ml RPMI 1640 supplemented with 2 mM L-glutamine, 100 U/ml penicillin and 100 μg/ml streptomycin sulphate (Biological Industries).
(§3) Inflammatory cells and PBLs derived from joints of rheumatoid arthritic (RA) patients were cultured individually [RPMI-1640 (Sigma, Israel)]. The murine fibroblast line, NIH 3T3, was used as a control. The recombinant galectin-8 peptide (r-galectin-8) was added to the culture medium of the synovial fibroblasts at a concentration of 0.125 μM, 0.25 μM, 0.5 μM and 1 μM) together with lipopolysaccharide (LPS, 3 μg/ml). The recombinant galectin-8 peptide variants (r-galectin-8 variant 1 and r-galectin-8 variant 2) were added to all the culture mediums in the following concentrations: 50 ng/ml, 125 ng/ml, 250 ng/ml, 500 ng/ml, 750 ng/ml, 1 μg/ml and 2 μg/ml together with lipopolysaccharide (LPS, 3 μg/ml). Following 48 hours of incubation (37° C., 5% CO2), the measurement of IL-1β, TNF-α and IL-1ra production was performed in supernatants by quantitative sandwich enzyme immunoassay technique (R&D Systems, Inc., USA). Detection limits were 1 pg/ml to 14 pg/ml. IL-1ra production was tested with and without the addition of lipopolysaccharide (LPS, 3 μg/ml) to the culture media.

[2] = system: collagen induced arthritis (CIA); experiment: Collagen-induced arthritis (CIA) in DBA/1 mice, footpad thickness; type: in vivo; conditions: 100 μg per injection, IP / systemic, from disease onset every day for 11 days
Source text: Animal treatment: 44 DBA/1 mice were induced with a joint inflammatory disease by two subcutaneous (s.c.) injections into the base of the tail of type II collagen three weeks apart. Joint inflammation, which appears several days after the last collagen injection, causes enhanced marked foot pad swelling, as well as swelling of other joints. The diameter of nonarthritic footpads is 1.5 to 1.7 mm. A footpad diameter of 1.9 to 2.0 mm was arbitrarily set as disease onset. […] Human galectin-8 protein and variants (100 μg per injection) as well as control injections were injected IP at disease onset and then every day for 11 days. The 44 mice were divided into 5 experimental groups as follows: Group 1 (negative control): systemic injection (starting at CIA onset) of PBS or PBS+30% glycerol (storing dilution solution of galectin proteins) (10 mice). Group 2 (positive control): systemic injection (starting at CIA onset) of anti-mouse TNFα mAb (cat. no. AMC-3012, Biosource Int. Inc. USA) adhering to the standard protocol (i.e., 100 μg antibody/mouse every day for 11 days) (6 mice). Group 3 (positive control): systemic injection of human galectin-8 protein according to the standard protocol (10 mice). Group 4: systemic injection of 100 μg per dose of human galectin-8 variant 1 according to the standard protocol (10 mice). Group 5: systemic injection of 100 μg per dose of human galectin-8 variant 2 (8 mice). The effect on footpad thickness was determined in a “blind” fashion, recording the electronic microcaliper measurements of the thickness of the joints, by picking the animals at random and recording their ears' signs following measurement. The mice were bled prior to disease induction, following disease onset and upon termination of the experiment (approximately day 11). The sera were stored and later analyzed for the presence of rheumatoid factor (RF) and cytokines. The mice were killed upon termination of the experiment and the joints removed from some of the animals for histopathological examination.

[3] = system: PBLs of arthritic patients; experiment: Apoptosis induction, annexin V/PI flow cytometry, PBLs; type: cell-based, human; conditions: lowest concentration 50 ng/ml
Protocol: as §1

IL-1β = IL-1β levels in media of LPS-supplemented human synovial tissue / cell cultures, sandwich enzyme immunoassay; type: cell-based; conditions: for IL-1β levels in media / decrease of IL-1β levels: LPS 3 μg/ml, 48 hours; for IL-1β levels in media: 50-2000 ng/ml; for decrease of IL-1β levels: synovial tissue culture
Protocol: as §2, §3

TNFα = TNFα levels in media of LPS-supplemented human synovial tissue / cell cultures, sandwich enzyme immunoassay; type: cell-based; conditions: for TNFα levels in media / decrease of TNFα levels: LPS 3 μg/ml, 48 hours; for TNFα levels in media: 50-2000 ng/ml; for decrease of TNFα levels: synovial tissue culture
Protocol: as §2, §3

[4] = system: human fibroblasts from OA patients; experiment: Apoptosis induction, annexin V/PI flow cytometry, OA fibroblasts; type: cell-based; conditions: for total cell population in the apoptotic area: 24 h, no-addition control 39.5%
Protocol: as §1

[5] = system: PBLs of arthritic patients; experiment: Flow cytometry of recombinant galectin-8 binding to PBLs (anti-galectin-8 immunostaining); type: cell-based, human; conditions: 1 μM added to PBLs
Protocol: (§4) Peripheral white blood cells and the total cell population from synovial fluids of arthritic patients were isolated (approximately 10^7 cells) on a Ficoll gradient (Robbins Scientific Corporation, Sunngvale, Calif., USA) and analyzed by flow cytometry using anti-galectin-8 polyclonal antibody (generated in rabbits according to prior art protocols).
(§5) Specific binding of anti-galectin-8 was performed by the incubation of cells for 20 minutes on ice in a binding calcium buffer containing a saturating concentration of anti-galectin-8. Thereafter, a second incubation with a goat-anti-rat conjugated to fluorescein isothiocyanate (FITC) was effected. After incubation, the cells were pelleted, and analyzed in FACS analyzer (Beckton Dickinson, San Jose, Calif.). Following the initial analysis, recombinant galectin-8 (as prepared in Example 1) (1 μM) was added to both the synovial fluid cells and the PBLs to verify that recombinant galectin-8 may be detected by immunostaining with anti-galectin-8 polyclonal antibody.

[6] = system: synovial fluid cells of arthritic patients; experiment: Flow cytometry of recombinant galectin-8 binding to synovial fluid cells (anti-galectin-8 immunostaining); type: cell-based, human; conditions: 1 μM added to synovial fluid cells
Protocol: as §4, §5

[7] = human fibroblasts from OA patients
[8] = 0.25 μM, 0.5 μM and 1 μM, vs LPS treated control, dose dependent
[9] = 0.125 μM, vs LPS treated control
[10] = 0.25 μM, vs LPS treated control

For `COc1cccc2c1C(=O)c1c(O)c3c(c(O)c1C2=O)C[C@@](O)(C(=O)CO)C[C@@H]3O[C@H]1C[C@H](N)[C@H](O)[C@H](C)O1` [doxorubicine, reference compound], which “total cell population in the necrotic area” value ([1]; 24 h, 150 μg/ml, positive control) is on record?
Its value is 80%.

B1: galectin-8 variant 2: recombinant galectin-8 variant 2 polypeptide, SEQ ID NO: 8, isoform found in synovial fluid cells of arthritic patients (protein)
chain: MMLSLNNLENIIYNPYIPYVGTIPDQLDPGTLIVICGHVPSDADRFQVDLQNGSSVKPRADVAFHFNPRFKRAGCIVCNTLINEKWGREEITYDTPFKREKSFEIVIMVLKDKFQDLQSTQASSLELTEISRENVPKSGTPQLSLPFAARLNTPMGPGRTVVVKVRSECKCQKMIIYCDVREFKVAVNGVHSLEYKHRFKELSSIDTLEINGDIHLLEVRSW
With B1 as the molecule, how does the maximal apoptotic effect ([1]; inflammatory cells from joints of arthritic patients, lowest concentration 50 ng/ml) read?
The maximal apoptotic effect was “approximately 100%”.

What about the “IL-1ra levels in media” value (IL-1ra; PBLs of RA patients) of the same molecule?
The value was “significantly and dose-dependently increased”.

And the “IL-1ra levels in media” value (IL-1ra; [7])?
The value was “significantly and dose-dependently increased”.

What about the “IL-1ra levels in media” value (IL-1ra; synovial fluid cells (SFCs)) of the same molecule?
Its value is “significantly and dose-dependently increased”.

What about the “CIA manifestations (footpad swelling)” value [2] of the same molecule?
The value was “did not influence”.

And the maximal apoptotic effect [3]?
Its maximal apoptotic effect is “approximately 100%”.

And the “IL-1β levels in media” value (IL-1β; PBLs from RA patients)?
Its value is “significantly and dose-dependently inhibited”.

What about the “IL-1β levels in media” value (IL-1β; [7]) of the same molecule?
The value was “significantly and dose-dependently inhibited”.

And the “IL-1β levels in media” value (IL-1β; synovial fluid cells (SFCs))?
The value was “significantly and dose-dependently inhibited”.

What about the “TNFα levels in media” value (TNFα; PBLs from RA patients) of the same molecule?
Its value is “significantly and dose-dependently inhibited”.

What about the “TNFα levels in media” value (TNFα; [7]) of the same molecule?
The value was “significantly and dose-dependently inhibited”.

What about the “TNFα levels in media” value (TNFα; synovial fluid cells (SFCs)) of the same molecule?
The value was “significantly and dose-dependently inhibited”.

What about the “total cell population in the apoptotic area” value ([4]; 125 ng/ml) of the same molecule?
Its value is 52.2%.

And the “total cell population in the apoptotic area” value ([4]; 250 ng/ml)?
Its value is 50.8%.

What about the “total cell population in the apoptotic area” value ([4]; 500 ng/ml) of the same molecule?
The value was 62%.

And the “total cell population in the apoptotic area” value ([4]; 750 ng/ml)?
The value was 59%.

What about the “total cell population in the apoptotic area” value ([4]; 1000 ng/ml) of the same molecule?
Its value is 71.4%.

What about the “total cell population in the apoptotic area” value ([4]; 2000 ng/ml) of the same molecule?
The value was 77.4%.

What about the “percentage of apoptotic cells” value ([4]; increasing concentrations (50-2000 ng/ml)) of the same molecule?
The value was “gradually increased”.

B2: galectin-8: recombinant human galectin-8 polypeptide, SEQ ID NO: 4, expressed in E. coli (protein)
chain: MLSLNNLQNIIYNPVIPYVGTIPDQLDPGTLIVICGHVPSDADRFQVDLQNGSSVKPRADVAFHFNPRFKRAGCIVCNTLINEKWGREEITYDTPFKREKSFEIVIMVLKDKFQVAVNGKHTLLYGHRIGPEKIDTLGIYGKVNIHSIGFSFSSDLQSTQASSLELTEISRENVPKSGTPQLSLPFAARLNTPMGPGRTVVVKGEVNANAKSFNVDLLAGKSKDIALHLNPRLNIKAFVRNSFLQESWGEEERNITSFPFSPGMYFEMIIYCDVREFKVAVNGVHSLEYKHRFKELSSIDTLEINGDIHLLEVRSW
Which “detection of added recombinant galectin-8 on cells by anti-galectin-8 immunostaining” value [5] does the source give for B2 here?
The value was “detected”.

And the “apoptotic effects in human synovial fluid cells” value ([1]; 0.03 μM, 0.1 μM, 0.3 μM and 1 μM, dose dependent, vs serum free medium)?
Its value is “induced apoptotic effects”.

What about the “total cell population in the apoptotic area” value ([1]; 24 h, 0.03 μM) of the same molecule?
The value was 17%.

And the “total cell population in the apoptotic area” value ([1]; 24 h, 0.1 μM)?
The value was 20%.

And the “total cell population in the apoptotic area” value ([1]; 24 h, 0.3 μM)?
Its value is 23%.

And the “increase in apoptosis development” value ([1]; 24 h, 1 μM, vs untreated control)?
The value was 3 fold.

And the “total cell population in the apoptotic area” value ([1]; 24 h, 1 μM)?
Its value is 58%.

What about the “IL-1ra production in the media of human synovial tissue” value (IL-1ra; 0.25 μM, 0.5 μM and 1 μM, vs untreated control, dose dependent) of the same molecule?
Its value is “increased”.

What about the “increase of IL-1ra levels” value (IL-1ra; 0.25 μM) of the same molecule?
Its value is “approximately 4 fold”.

What about the “increase of IL-1ra levels” value (IL-1ra; 0.5 μM) of the same molecule?
The value was roughly 9 fold.

And the “increase of IL-1ra levels” value (IL-1ra; 1 μM)?
Its value is roughly 22 fold.

What about the “CIA manifestations (footpad swelling)” value [2] of the same molecule?
The value was “substantially reduced”.

And the “detection of added recombinant galectin-8 on cells by anti-galectin-8 immunostaining” value [6]?
Its value is “detected”.

What about the “IL-1β release in the media of human synovial tissue” value (IL-1β; [8]) of the same molecule?
The value was “inhibited”.

And the “decrease of IL-1β levels” value (IL-1β; [9])?
The value was “approximately 9%”.

And the “decrease of IL-1β levels” value (IL-1β; [10])?
The value was roughly 42%.

And the “decrease of IL-1β levels” value (IL-1β; 0.5 μM, vs LPS treated control)?
The value was roughly 67%.

What about the “TNF-α release in the media of human synovial tissue” value (TNFα; [8]) of the same molecule?
The value was “inhibited”.

And the “decrease of TNFα levels” value (TNFα; [9])?
Its value is “approximately 2%”.

What about the “decrease of TNFα levels” value (TNFα; [10]) of the same molecule?
Its value is roughly 43%.

And the “decrease of TNFα levels” value (TNFα; 0.5 μM, vs LPS treated control)?
Its value is roughly 74%.
